Source: article PMC4506539, “Crystallographic structure of a small molecule SIRT1 activator-enzyme complex” (Nature Communications, 2015)

T1: full-length human SIRT1 (human, UniProt Q96EB6 1-747)
T1 construct: human SIRT1, full length, 747 amino acids; also called hSIRT1; wild-type hSIRT1
T1 sequence (looked up): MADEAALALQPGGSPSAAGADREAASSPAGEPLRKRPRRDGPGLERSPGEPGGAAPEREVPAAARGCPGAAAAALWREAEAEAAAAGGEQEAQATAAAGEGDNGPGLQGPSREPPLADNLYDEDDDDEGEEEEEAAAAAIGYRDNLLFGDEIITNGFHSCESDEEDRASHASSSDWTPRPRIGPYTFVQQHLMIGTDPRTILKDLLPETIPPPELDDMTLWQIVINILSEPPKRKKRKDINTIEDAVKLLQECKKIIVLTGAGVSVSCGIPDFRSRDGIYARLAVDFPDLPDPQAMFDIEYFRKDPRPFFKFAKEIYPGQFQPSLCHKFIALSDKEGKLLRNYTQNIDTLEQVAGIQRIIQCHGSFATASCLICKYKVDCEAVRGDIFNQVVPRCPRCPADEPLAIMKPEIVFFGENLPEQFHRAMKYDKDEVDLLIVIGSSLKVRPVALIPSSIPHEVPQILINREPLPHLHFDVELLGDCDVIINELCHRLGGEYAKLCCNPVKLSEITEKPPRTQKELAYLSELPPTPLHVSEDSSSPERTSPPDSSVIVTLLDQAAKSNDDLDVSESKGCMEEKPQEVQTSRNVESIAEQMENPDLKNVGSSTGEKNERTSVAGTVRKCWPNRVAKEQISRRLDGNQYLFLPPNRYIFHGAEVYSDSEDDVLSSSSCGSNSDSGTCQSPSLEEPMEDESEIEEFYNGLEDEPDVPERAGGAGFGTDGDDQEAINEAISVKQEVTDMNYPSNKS

T2: hSIRT1 catalytic core, residues 229–516 (human, UniProt Q96EB6 229-516)
T2 sequence (looked up): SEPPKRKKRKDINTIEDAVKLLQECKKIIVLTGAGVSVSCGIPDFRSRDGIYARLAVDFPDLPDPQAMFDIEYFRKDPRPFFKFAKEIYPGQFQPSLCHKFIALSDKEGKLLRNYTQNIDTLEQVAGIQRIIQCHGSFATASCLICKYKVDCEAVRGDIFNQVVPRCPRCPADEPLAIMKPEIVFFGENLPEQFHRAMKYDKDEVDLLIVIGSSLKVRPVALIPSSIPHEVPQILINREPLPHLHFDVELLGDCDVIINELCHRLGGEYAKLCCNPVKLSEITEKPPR


Experiments:
full-length human SIRT1 = molecular target: T1, full-length human SIRT1; test: HDX-MS; 0.77 mg/ml full-length SIRT1 ± 3.88 mM Ac-p53(W5) ± 192 μM STAC 1 in 1.9% DMSO, mixed 1:1 with 100 mM phosphate pH read 7.0 in D2O; 0 °C, 15-5,000 s; details: both partners purified
[1] = molecular target: T2, hSIRT1 catalytic core, residues 229–516; test: cell-based or functional assay

binding result (full-length human SIRT1) | deacetylase activity of hSIRT1cd after addition of the CTR peptide, relative to full-length hSIRT1 (∼15% without the peptide) [1] | Binder
binds |  | Ac-RHKK(Ac)W-NH2 (p53-based peptide Ac-RHKKAcW-NH2; also called Trp-5mer; p53-derived peptide substrate; source: synthetic peptide, bought: Biopeptide) [Ac-p53(W5) (Ac-RHKKAcW-NH2)]
 | 80 % of the activity of full-length hSIRT1 | QYLFLPPNRYIFHGAEVYSDSEDDV (peptide, UniProt Q96EB6 641-665, looked up) [human C-terminal regulatory segment (CTR) peptide of SIRT1]
